{"source": "the nanobody polyreactivity screen of Harvey et al. (2022)", "data": [{"assay": "yeast display, Sf9 membrane polyspecificity reagent, FACS + sequencing; frameworks hold sequencing errors", "how_it_was_run": "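Polyreactivity labels are assigned by the sorting gate from which each nanobody was recovered. The gates were low and high (top ~1%), set on anti-HA fluorescence for expression and streptavidin fluorescence for reagent binding. Before sorting, galactose-induced (36–48 hours) yeast display cells were stained for 1 hour at 4 °C with 10% biotinylated, detergent-solubilized Sf9 membrane reagent.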", "values": [{"sequence": "QVQLVESGGGLVQAGGILRLSCAASGSIFGLYAMVWYRQAPGKERELVAAISPRGGSTYYADSVKGRFTISRDNAKNTVYLQMNILKPEDTAVYYCNRDYIRYALGHDYWGQGPQVTVSS", "polyreactivity (PSR sort gate)": "high polyreactivity"}, {"sequence": "QVQLVESGGGLVQAGGSLRLSCDASGFIFGRNAMGWYRQAPGKERELVAGISSSGFRTFYADSVKGRFTISRDNAKNTDYLQMNSLKQEDTAVYYCAAEIRYYKYGSYYYWGKGTQVTVSS", "polyreactivity (PSR sort gate)": "high polyreactivity"}, {"sequence": "QVQLVESGGGLVQAGGSLRLSCAASGSTFIVNAMGWYRQAPGKERELVAAITGGGGSTYYADSVKGRFTISRDNAKNTVYLQMNSLKPEDTAVDYCAARIQYAFGADYYWGQGTQVTVSS", "polyreactivity (PSR sort gate)": "low polyreactivity"}, {"sequence": "QVQLVESGGGLVQAGGSLRLSCAASGLTLHGNAMGWYRQAPGKERELVATITSSGGSTFYADSVKGRFTISRDNAKNTVYLQMNSLKPEDTAVYYCNADAPYSDDYYVRFDYWGQGTQVTVSS", "polyreactivity (PSR sort gate)": "low polyreactivity"}, {"sequence": "QVQLVESGGGLVQAGGSLRLSCAASGFIFTIYALGWYRQAPGKERELVAAIDSSGTTYYADSVKGRFTISRDNAKNTVYLQMNSLKPEDTAVYYCNTDIYVQYGWGQGTQVTVSS", "polyreactivity (PSR sort gate)": "low polyreactivity"}, {"sequence": "QVHLVESGGGLVQAGGSLRLSSAASGLIFYHYAMGWYRQAPGNERELVAAITKRGGSTYYADSVKGRFTISRDNAKNTVYLQINSLKQEDTAVYYCAADGVRYTQSFEMYWGQGTQVTVSS", "polyreactivity (PSR sort gate)": "high polyreactivity"}, {"sequence": "QVQLVESGGGLVQAGGSLRLSCAASGSTFCFNAMGWSRQAPGKEREMVAAIPSRGGSTYYADSVKGRFTSSRDNAKKTVYLQMKSLKPEDTAVYYCASDYFGFSYAGYNYWGQGTQVTVSS", "polyreactivity (PSR sort gate)": "low polyreactivity"}, {"sequence": "QVQLVESGGGLVQAGVSLRLSCAASGSLFSANAMGWYRQAPGKERELVASITGDGSTNYADSVKGRFTISRDNAMNTVYLQMNSLKPEDTAVYYCAADIGSWYDYWGQGTQVTVSS", "polyreactivity (PSR sort gate)": "low polyreactivity"}, {"sequence": "QVQLKESGGGLVQSGGSLRLSCAASGNIVDADIMGWYRQAPGKERELVASITDGGSTNYADSVKGRFTISRDNAKNTVYLQMNSLKPEDTAVYYCAAIAYPDIPTYFDYDSEYFYWGQGTQVTVSS", "polyreactivity (PSR sort gate)": "low polyreactivity"}, {"sequence": "QVQLVESGRGLVQAGGSLRLSCAASGLTFSKYAMGWYRQAPGKERELVATISRSGGSTYYADSVKGRFTISRDNAKNTVYVQMNSLKPEDTAVYYCAAGSILYGATGEYIYWGQGTQVTVSS", "polyreactivity (PSR sort gate)": "high polyreactivity"}, {"sequence": "QVQLVESGGGLVQAGGSLRLSCAASGRINAMGWYRQAPGKERELVAVITLRGGSTYYADSVKGRFTISRDNAKNTVYLQMNSLKPEDTAVYYCAAVYRWPDAKYDYWGQGTQVSVSS", "polyreactivity (PSR sort gate)": "low polyreactivity"}, {"sequence": "QVQLVESGGGLVQAGGSLRLSCAASGRIFYYYAMAWYRQAPGKERELVAAITRRGGSTYYADSVKGRFTISRDIAKNTVYFQMNSLKPEDTAVYYCAKPDRTGWLDGDYWGQGTQVTVSS", "polyreactivity (PSR sort gate)": "low polyreactivity"}, {"sequence": "QVQLVESGGGLVQAGGSLSLSCAASGNIFSYNAMGWYRQAPGKERELVAAITWAGSTYADSVKGRFTISRDNAKNTVFLQRNSLKPEDTAVYYCNAANDSGYDYWGQGTQVTVSS", "polyreactivity (PSR sort gate)": "low polyreactivity"}, {"sequence": "QVQRVESGGGLVQAGGRLRLTCAASGSTFYVNAMVWYRQAPGKERELVAGISFSDGSTYYADSVKGRFTISRDNAKNTVYLQMNSLKPEDTAVYYCATVGAFDIYYGYGYWGQGTQVTVSS", "polyreactivity (PSR sort gate)": "low polyreactivity"}, {"sequence": "QVQLVESGGGLVQAGGSLRLSCAASAFIFSRNAMGWYRQAPGKDRELVAAISLRGGSTSYADSVKGRFTISRDTAKNTVYIQMNSLKPEDTAVYYCAKYDRNTYGYWGQGTEVTVSS", "polyreactivity (PSR sort gate)": "low polyreactivity"}, {"sequence": "QVQLVESGGGLVQAGGSLRLSCAASGFIFYEYAMGWYRQATGKERELVAAITYSAGSTYYADSVKGRFTISRDNAKNTVYLQMNSLKPEDTAVYFCAKVDSEYRQVIQQEDDYWGQGTQVTVSS", "polyreactivity (PSR sort gate)": "low polyreactivity"}, {"sequence": "QVQLVESGGGLVQAGGSLRVSCAASGRIIGQYAMGWSRQAPGKEWELVASISRRGGSTYYAASVKGRFTISRDNAKKTVYLQMYSLKPEDTAVYYCAKERTYGHYDYWGQGTQVTVSS", "polyreactivity (PSR sort gate)": "high polyreactivity"}, {"sequence": "QVQLVESGGGLVQAGGSLSLSCAASGLILRSYAMGWYRQAPWKERELVAAISGSGGRTYYADSVKGRFTISRDNAKNTVYLLMNSLKPEDTAVYYCAAGWTYRQNGYWGQGTQVTVSS", "polyreactivity (PSR sort gate)": "high polyreactivity"}, {"sequence": "QVQLVESGGGLVQAGGSLRLSCSDSGFTFARYTMGWYRQPPGKESELVAGISRSTGRTYYADSVKGLFTISRDNAKNTVYLQMNSLKPEDTAVYYCAARATRSLSRSMDYWGQGTQVTVSS", "polyreactivity (PSR sort gate)": "high polyreactivity"}, {"sequence": "QVQLVESGGGLVQAGGSLRLSCAASGLTFWTNTMGWSRQAPGKERELVATISSGGGTYYADSVKGRFTISRDNAKNTVYLQMNSLKPEDTAVYYCAAKRKRYFVGYYYWGQGTQVTVSS", "polyreactivity (PSR sort gate)": "low polyreactivity"}, {"sequence": "HVQLVESGGGLVQAGGSLRLICAASGGTFAGYSMGWYRQAPGKDRELVAAITYRSSTTYYADSVKGRFTISRDNAKNTVYLQMNSLKPEDTAVYYCAARTRGTGRNLDYWGQGTQVNVSS", "polyreactivity (PSR sort gate)": "high polyreactivity"}, {"sequence": "QLQLVESGGGLVPAGGSLRLSCAASGIIFTSNTMGWYRQAPGKEREFVASINWNGSSTYADSVKGRFTISRDNGKNTVYLEMNSLKPEDTAVYYCNADYISNSVQFSLYDYWGQGTQVTVSS", "polyreactivity (PSR sort gate)": "low polyreactivity"}, {"sequence": "QVQLVESGGGLVQAGGSLRLSCAASGFTLRLYTMGWYIQAPGKERELVAAISRSGGSTYYADSVKGRFTISRDNAKNTVYLQMNSLKPEDPAVYYCNAKNGRPGFNMYHWGQGTQVTVSS", "polyreactivity (PSR sort gate)": "high polyreactivity"}, {"sequence": "QVQLVESGGGLVQAGGSLRLSCAASGSISYTYAMGWYRQAPGKERELVAAISYSDGITYYADSVKGRFTISRDIAKNTVYLQMNSLKPEDTAVYYCAVEGVYPYYDQSEYDYWGQGTQVTVSS", "polyreactivity (PSR sort gate)": "high polyreactivity"}, {"sequence": "QVQLQESGRRPGAAGGSPRMSCAASGNIFWVAVMGRYRQAPGKERELVASIGFGCTTYYADSVKCRFTISRDNAKNTVYLQMISLKPEDTAVYYCAAPLYDWGELDYWGQGTQVPVSS", "polyreactivity (PSR sort gate)": "low polyreactivity"}, {"sequence": "QVQLVESGGGLVQAGGSLRLSCAASGFIFQANPMGWYRPAPGKERELVAAIDDGDSTYADSVKGRFTISRDNAKNTVYLQMNSLKPEDTAVYYCATRRKRSYDYWGHGTQVTVSS", "polyreactivity (PSR sort gate)": "low polyreactivity"}, {"sequence": "QVQLVESGGGLVQAGGSLRLSCASSGYTLRPNGKGWYRQAPGKERELVAAISSGGSTYYADSVKGRFTISRDNAKNTVYLQMNSLKPEDTAVYYCAAEYWYDYWGQGTQVTVSS", "polyreactivity (PSR sort gate)": "low polyreactivity"}, {"sequence": "QVQLVESGGGLVQAGGSLRLSCAASGFTFGVYTMGWYRQAPGKETELVASISWDGGSTYYADSVKGRFTISRDNAKNTVYLQMNSLKPEDTAVYYCAKGSSFYYGYDYWGQGTQVTVSS", "polyreactivity (PSR sort gate)": "low polyreactivity"}, {"sequence": "QVQLVESGGGLVQAGGSLRLSCAASGFIFTQYAMGWYRQSPGKERELVAGITSSGNTYYADSVKGRFTISRDNAKNTVYLQMNSLKPEDTAVYYCAARSYVRRFDGGYWGQGTQVTVSS", "polyreactivity (PSR sort gate)": "high polyreactivity"}, {"sequence": "QVQLVESGGGLVQSGGSLRLSCAASGFIFLNYAMGWYRQAPGKERQLVAAITSGGNTTYADSVKGRFTISRDNAKNTVYLQMNSLKPEDTAVYYCAAEWASRYAVFWAYPKYDYWGQGTQVTVAS", "polyreactivity (PSR sort gate)": "low polyreactivity"}, {"sequence": "QVQLVESGGGLVQAGGSHRLRCAASGITLLLNAMGWYRQAPGKERELVAAISEGGGSTYYAHSVKGRFTISRDNAKNTVYLQMNSLKPEDTAVYYCNADRVYRVPSEYDSWGQGTQVTVSS", "polyreactivity (PSR sort gate)": "low polyreactivity"}, {"sequence": "QVQLVESGGGLLQAGGSLRLSCAASGLIFGYYAMGWYRQAPGKERELVGAITSSGTSTYYADSVKGRFTISRDNAKNTVYLQMNSLKPEDTAVYYCAAQYIGKKRFNYWGQGTQVTVSS", "polyreactivity (PSR sort gate)": "high polyreactivity"}]}]}
